Tests used:
[1] = molecular target: T1, CADM1-His (Acro Biosystems) (human, UniProt Q9BY67 45-374); assay: ELISA on coated protein
T1 construct: Bought; also called CADM1/IGSF4A; not shown: His tag of the bought protein
T1 sequence: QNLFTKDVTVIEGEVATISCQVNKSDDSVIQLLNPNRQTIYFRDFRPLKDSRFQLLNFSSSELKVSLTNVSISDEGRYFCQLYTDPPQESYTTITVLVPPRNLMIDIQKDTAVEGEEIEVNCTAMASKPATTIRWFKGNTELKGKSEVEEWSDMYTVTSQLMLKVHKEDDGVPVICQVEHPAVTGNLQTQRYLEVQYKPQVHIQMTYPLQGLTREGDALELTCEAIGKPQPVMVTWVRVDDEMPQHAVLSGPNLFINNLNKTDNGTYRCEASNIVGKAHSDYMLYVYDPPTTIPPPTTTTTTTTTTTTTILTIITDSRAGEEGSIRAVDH

[2] = molecular target: T2, PTPRG-Fc (ECD of human PTPRG, aa 20-736, fused to human Fc gamma 1) (human, UniProt P23470 20-736); assay: ELISA on coated protein
T2 construct: Made in-house in Expi293 cells; Used in ELISA and SPR; also called recombinant PTPRG-Fc; PTRPG; not shown: human IgG1 Fc (Fc gamma 1) after the hinge
T2 sequence: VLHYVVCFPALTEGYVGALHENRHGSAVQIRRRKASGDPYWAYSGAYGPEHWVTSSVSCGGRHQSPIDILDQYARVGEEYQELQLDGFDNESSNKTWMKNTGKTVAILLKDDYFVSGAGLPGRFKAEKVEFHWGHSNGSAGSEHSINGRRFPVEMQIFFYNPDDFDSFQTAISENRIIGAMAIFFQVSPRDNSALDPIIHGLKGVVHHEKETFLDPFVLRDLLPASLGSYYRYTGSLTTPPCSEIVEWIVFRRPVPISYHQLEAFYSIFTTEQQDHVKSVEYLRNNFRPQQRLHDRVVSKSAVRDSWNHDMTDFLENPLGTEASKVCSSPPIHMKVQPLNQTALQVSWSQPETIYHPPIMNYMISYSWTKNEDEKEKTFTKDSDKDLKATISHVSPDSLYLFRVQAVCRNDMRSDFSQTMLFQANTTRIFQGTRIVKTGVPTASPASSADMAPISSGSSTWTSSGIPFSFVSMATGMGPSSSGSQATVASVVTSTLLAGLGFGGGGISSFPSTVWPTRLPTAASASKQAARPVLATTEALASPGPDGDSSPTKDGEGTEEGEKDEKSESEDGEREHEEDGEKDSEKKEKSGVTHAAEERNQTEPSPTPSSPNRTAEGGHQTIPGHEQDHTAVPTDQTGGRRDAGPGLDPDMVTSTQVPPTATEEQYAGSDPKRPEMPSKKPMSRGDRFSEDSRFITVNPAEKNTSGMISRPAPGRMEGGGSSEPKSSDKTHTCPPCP

[3] = molecular target: T3, GARS, endogenous in H929 multiple myeloma cells (human, UniProt P41250 37-739, limits assumed); assay: flow cytometry, H929 + GARS siRNA (siRNA against the putative target); None 0.2
T3 construct: Native protein pulled down from H929 lysates; also called Glycyl-tRNA synthetase; GlyRS
T3 sequence: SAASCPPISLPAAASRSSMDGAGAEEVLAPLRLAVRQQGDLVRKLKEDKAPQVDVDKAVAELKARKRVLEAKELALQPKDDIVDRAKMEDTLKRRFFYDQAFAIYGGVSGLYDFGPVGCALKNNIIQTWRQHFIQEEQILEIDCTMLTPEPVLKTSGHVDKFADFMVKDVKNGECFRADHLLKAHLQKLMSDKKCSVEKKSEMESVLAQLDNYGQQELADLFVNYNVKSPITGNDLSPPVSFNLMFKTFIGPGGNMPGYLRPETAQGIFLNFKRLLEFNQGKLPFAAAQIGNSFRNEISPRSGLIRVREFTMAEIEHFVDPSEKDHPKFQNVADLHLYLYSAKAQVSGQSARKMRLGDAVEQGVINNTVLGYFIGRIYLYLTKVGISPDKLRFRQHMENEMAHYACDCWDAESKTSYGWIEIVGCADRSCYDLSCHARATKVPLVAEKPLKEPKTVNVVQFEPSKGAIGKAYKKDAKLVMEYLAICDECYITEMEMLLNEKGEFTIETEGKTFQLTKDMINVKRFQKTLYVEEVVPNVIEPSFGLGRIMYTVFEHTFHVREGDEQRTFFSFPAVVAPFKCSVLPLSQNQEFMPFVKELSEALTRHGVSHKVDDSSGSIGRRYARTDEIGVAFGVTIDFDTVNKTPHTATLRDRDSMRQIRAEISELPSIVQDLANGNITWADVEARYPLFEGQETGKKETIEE

[4] = molecular target: T4, SLAMF7; assay: ELISA on coated SLAMF7-StrepTag
T4 construct: coated protein in the ELISA; also called SLAMF7-StrepTag
T4 chain: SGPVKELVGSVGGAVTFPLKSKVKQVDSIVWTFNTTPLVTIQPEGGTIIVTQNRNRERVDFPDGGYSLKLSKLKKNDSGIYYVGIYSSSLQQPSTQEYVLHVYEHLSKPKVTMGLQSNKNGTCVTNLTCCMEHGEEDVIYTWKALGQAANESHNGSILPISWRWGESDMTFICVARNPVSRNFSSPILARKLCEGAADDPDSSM
Experimental: Recombinant purified ECDs (50-150 ng) of each putative target protein were coated, incubated with 150 ng of the indicated primary antibody, and binding was detected using a peroxidase-conjugated anti-human Fab secondary antibody. Heatmap represents averages of technical triplicates. (8B) Target validation via siRNA knockdown. H929 cells were transfected with siRNA pools targeting the putative antibody targets ICAM1, CADM1, and PTPRG. Cells were then subjected to cognate IgG binding analysis via flow cytometry. (NT, non-targeting siRNA).
ELISA ELISA was conducted as described previously. Briefly, 50-150 ng of antigen was coated overnight in half-area 96-well plates at 4° C., blocked with 3% BSA at 37° C. for 1 h, and 150 ng of chimeric rabbit/human IgG1 was added, incubating for 2 h at 37° C. […] After incubating at 37° C. for 15 min-1 h (depending on intensity of controls), data were acquired using a SpectraMax M5 plate reader (Molecular Devices).

[5] = molecular target: T3, GARS, endogenous in H929 multiple …; assay: flow cytometry, H929 + NT Green siRNA; None 416; surface target GARS putative

- Cells stained (%) [3]: 99%
- mAb binding (MFI) [5]: 15500
B1: HW-8 chimeric rabbit-human IgG1 LA/LA/PG (antibody, V domains shown)
VH: QSLEESGGRLVTPGTPLTLTCTVSGFSLSSYAMSWVRQAPGKGLEWIGAISTGGSTTYASWAKGRFTISKTSSTTVDLKMTSLTTEDTATYFCVRHFRLWGPGTLVTISS
VL: QVLTQTPSSVSAAVGGTVTIKCQASQSIGSALAWFQQKPGQRPKLLIYRASNLASGVPSRFKGSGSGTEFALTISGVQREDAATYYCLGGAAAVWAFGAGTNVEIKR
notes: Fc-silenced (L234A/L235A/P329G) IgG1, kappa; Alexa Fluor 647-labeled in single-step flow cytometry; Cluster C-45
- binding result [1]: no binding (tested: 150 ng IgG1 per well)
- binding result [2]: no binding (tested: 150 ng IgG1 per well)
- binding result [4]: no binding (tested: 150 ng IgG1 per well)
